# Test results from paper PMC13397619.
# B1: NLV3 TCR beta chain (CDR3β only) (parent)
# chain: ASSPTGGSPSPLH
# partner: NLCPMVATV
# Variants of: B1
# Assay: T-Switch: Jurkat TCRβ−/− cells expressing a CDR3 saturation-mutagenesis library, stained with two peptide-HLA-A*02:01 tetramers (original and novel peptide) plus anti-CD3, FACS-sorted into four gates, gDNA sequenced
# Conditions: with HLA-A*02:01 with peptide … (NLV 2-1, the novel peptide), tetramers 1 µg/mL, 30 min on ice, SP, DP and SW gates expanded about 10 days between rounds ('two to three rounds of selection' in the Methods), gate SW: higher = more of the variant in the gate that binds the novel peptide and not the original one = switched binding. Fold enrichment of the CDR3 variant in one FACS gate of a two-tetramer stain, unresolved parent, parent is a CDR3 fragment, scale: fold enrichment, numbering: sequential-on-construct, sequence starts at 1
row,Variant,enrichment
1,[…] (CDR3 as printed); P9A derived by comparing it with the table's wild-type CDR3 ASSPTGGSPSPLH,0
2,[…] (CDR3 as printed); S10C derived by comparing it with the table's wild-type CDR3 ASSPTGGSPSPLH,0
3,[…] (CDR3 as printed); A1F derived by comparing it with the table's wild-type CDR3 ASSPTGGSPSPLH,0
4,[…] (CDR3 as printed); P11S derived by comparing it with the table's wild-type CDR3 ASSPTGGSPSPLH,0
5,[…] (CDR3 as printed); P4R derived by comparing it with the table's wild-type CDR3 ASSPTGGSPSPLH,0
6,[…] (CDR3 as printed); S2C derived by comparing it with the table's wild-type CDR3 ASSPTGGSPSPLH,0
7,[…] (CDR3 as printed); S2E derived by comparing it with the table's wild-type CDR3 ASSPTGGSPSPLH,0
8,[…] (CDR3 as printed); L12M derived by comparing it with the table's wild-type CDR3 ASSPTGGSPSPLH,0
9,[…] (CDR3 as printed); A1Y derived by comparing it with the table's wild-type CDR3 ASSPTGGSPSPLH,0
10,[…] (CDR3 as printed); S3D derived by comparing it with the table's wild-type CDR3 ASSPTGGSPSPLH,0
11,[…] (CDR3 as printed); S10A derived by comparing it with the table's wild-type CDR3 ASSPTGGSPSPLH,0
12,[…] (CDR3 as printed); L12G derived by comparing it with the table's wild-type CDR3 ASSPTGGSPSPLH,0
13,[…] (CDR3 as printed); S2K derived by comparing it with the table's wild-type CDR3 ASSPTGGSPSPLH,0
14,[…] (CDR3 as printed); P9N derived by comparing it with the table's wild-type CDR3 ASSPTGGSPSPLH,0
15,[…] (CDR3 as printed); S3P derived by comparing it with the table's wild-type CDR3 ASSPTGGSPSPLH,0
16,[…] (CDR3 as printed); S8E derived by comparing it with the table's wild-type CDR3 ASSPTGGSPSPLH,0
17,[…] (CDR3 as printed); H13P derived by comparing it with the table's wild-type CDR3 ASSPTGGSPSPLH,0
18,[…] (CDR3 as printed); S3V derived by comparing it with the table's wild-type CDR3 ASSPTGGSPSPLH,0
19,[…] (CDR3 as printed); A1P derived by comparing it with the table's wild-type CDR3 ASSPTGGSPSPLH,0
20,[…] (CDR3 as printed); L12E derived by comparing it with the table's wild-type CDR3 ASSPTGGSPSPLH,0
21,[…] (CDR3 as printed); H13G derived by comparing it with the table's wild-type CDR3 ASSPTGGSPSPLH,0

row,Variant,enrichment
1,[…] (CDR3 as printed); S10I derived by comparing it with the table's wild-type CDR3 ASSPTGGSPSPLH,0
2,[…] (CDR3 as printed); S2T derived by comparing it with the table's wild-type CDR3 ASSPTGGSPSPLH,0
3,[…] (CDR3 as printed); S2Q derived by comparing it with the table's wild-type CDR3 ASSPTGGSPSPLH,0
4,[…] (CDR3 as printed); S10E derived by comparing it with the table's wild-type CDR3 ASSPTGGSPSPLH,0
5,[…] (CDR3 as printed); S2G derived by comparing it with the table's wild-type CDR3 ASSPTGGSPSPLH,0
6,[…] (CDR3 as printed); S3T derived by comparing it with the table's wild-type CDR3 ASSPTGGSPSPLH,0
7,[…] (CDR3 as printed); A1Q derived by comparing it with the table's wild-type CDR3 ASSPTGGSPSPLH,0
8,[…] (CDR3 as printed); S8N derived by comparing it with the table's wild-type CDR3 ASSPTGGSPSPLH,0
9,[…] (CDR3 as printed); S10G derived by comparing it with the table's wild-type CDR3 ASSPTGGSPSPLH,0
10,[…] (CDR3 as printed); G6S derived by comparing it with the table's wild-type CDR3 ASSPTGGSPSPLH,0
11,[…] (CDR3 as printed); P4D derived by comparing it with the table's wild-type CDR3 ASSPTGGSPSPLH,0
12,[…] (CDR3 as printed); G6K derived by comparing it with the table's wild-type CDR3 ASSPTGGSPSPLH,0
13,[…] (CDR3 as printed); P9M derived by comparing it with the table's wild-type CDR3 ASSPTGGSPSPLH,0
14,[…] (CDR3 as printed); P4H derived by comparing it with the table's wild-type CDR3 ASSPTGGSPSPLH,0
15,[…] (CDR3 as printed); S8I derived by comparing it with the table's wild-type CDR3 ASSPTGGSPSPLH,0
16,[…] (CDR3 as printed); S10Q derived by comparing it with the table's wild-type CDR3 ASSPTGGSPSPLH,0
17,[…] (CDR3 as printed); S2R derived by comparing it with the table's wild-type CDR3 ASSPTGGSPSPLH,0
18,[…] (CDR3 as printed); P11G derived by comparing it with the table's wild-type CDR3 ASSPTGGSPSPLH,0
19,[…] (CDR3 as printed); P11T derived by comparing it with the table's wild-type CDR3 ASSPTGGSPSPLH,0
20,[…] (CDR3 as printed); P4N derived by comparing it with the table's wild-type CDR3 ASSPTGGSPSPLH,0
21,[…] (CDR3 as printed); S2N derived by comparing it with the table's wild-type CDR3 ASSPTGGSPSPLH,0

row,Variant,enrichment
1,[…] (CDR3 as printed); S8R derived by comparing it with the table's wild-type CDR3 ASSPTGGSPSPLH,0
2,[…] (CDR3 as printed); P9H derived by comparing it with the table's wild-type CDR3 ASSPTGGSPSPLH,0
3,[…] (CDR3 as printed); P11A derived by comparing it with the table's wild-type CDR3 ASSPTGGSPSPLH,0
4,[…] (CDR3 as printed); G6T derived by comparing it with the table's wild-type CDR3 ASSPTGGSPSPLH,0
5,[…] (CDR3 as printed); T5Y derived by comparing it with the table's wild-type CDR3 ASSPTGGSPSPLH,0
6,[…] (CDR3 as printed); P4Y derived by comparing it with the table's wild-type CDR3 ASSPTGGSPSPLH,0
7,[…] (CDR3 as printed); S2M derived by comparing it with the table's wild-type CDR3 ASSPTGGSPSPLH,0
8,[…] (CDR3 as printed); H13N derived by comparing it with the table's wild-type CDR3 ASSPTGGSPSPLH,0
9,[…] (CDR3 as printed); G7K derived by comparing it with the table's wild-type CDR3 ASSPTGGSPSPLH,0
10,[…] (CDR3 as printed); H13Q derived by comparing it with the table's wild-type CDR3 ASSPTGGSPSPLH,0
11,[…] (CDR3 as printed); G7I derived by comparing it with the table's wild-type CDR3 ASSPTGGSPSPLH,0
12,[…] (CDR3 as printed); H13A derived by comparing it with the table's wild-type CDR3 ASSPTGGSPSPLH,0
13,[…] (CDR3 as printed); S8A derived by comparing it with the table's wild-type CDR3 ASSPTGGSPSPLH,0
14,[…] (CDR3 as printed); G7Q derived by comparing it with the table's wild-type CDR3 ASSPTGGSPSPLH,0
15,[…] (CDR3 as printed); H13Y derived by comparing it with the table's wild-type CDR3 ASSPTGGSPSPLH,0
16,[…] (CDR3 as printed); P4C derived by comparing it with the table's wild-type CDR3 ASSPTGGSPSPLH,0
17,[…] (CDR3 as printed); P11W derived by comparing it with the table's wild-type CDR3 ASSPTGGSPSPLH,0
18,[…] (CDR3 as printed); T5V derived by comparing it with the table's wild-type CDR3 ASSPTGGSPSPLH,0
19,[…] (CDR3 as printed); G7V derived by comparing it with the table's wild-type CDR3 ASSPTGGSPSPLH,0
20,[…] (CDR3 as printed); S10T derived by comparing it with the table's wild-type CDR3 ASSPTGGSPSPLH,0
21,[…] (CDR3 as printed); P11R derived by comparing it with the table's wild-type CDR3 ASSPTGGSPSPLH,0

row,Variant,enrichment
1,[…] (CDR3 as printed); S10M derived by comparing it with the table's wild-type CDR3 ASSPTGGSPSPLH,0
2,[…] (CDR3 as printed); G6L derived by comparing it with the table's wild-type CDR3 ASSPTGGSPSPLH,0
3,[…] (CDR3 as printed); T5W derived by comparing it with the table's wild-type CDR3 ASSPTGGSPSPLH,0
4,[…] (CDR3 as printed); S10P derived by comparing it with the table's wild-type CDR3 ASSPTGGSPSPLH,0
5,[…] (CDR3 as printed); S3Y derived by comparing it with the table's wild-type CDR3 ASSPTGGSPSPLH,0
6,[…] (CDR3 as printed); P4A derived by comparing it with the table's wild-type CDR3 ASSPTGGSPSPLH,0
7,[…] (CDR3 as printed); P11N derived by comparing it with the table's wild-type CDR3 ASSPTGGSPSPLH,0
8,[…] (CDR3 as printed); T5R derived by comparing it with the table's wild-type CDR3 ASSPTGGSPSPLH,0
9,[…] (CDR3 as printed); P9W derived by comparing it with the table's wild-type CDR3 ASSPTGGSPSPLH,0
10,[…] (CDR3 as printed); G6E derived by comparing it with the table's wild-type CDR3 ASSPTGGSPSPLH,0
11,[…] (CDR3 as printed); A1S derived by comparing it with the table's wild-type CDR3 ASSPTGGSPSPLH,0
12,[…] (CDR3 as printed); S10V derived by comparing it with the table's wild-type CDR3 ASSPTGGSPSPLH,0
13,[…] (CDR3 as printed); G7H derived by comparing it with the table's wild-type CDR3 ASSPTGGSPSPLH,0
14,[…] (CDR3 as printed); G6W derived by comparing it with the table's wild-type CDR3 ASSPTGGSPSPLH,0
15,[…] (CDR3 as printed); S8W derived by comparing it with the table's wild-type CDR3 ASSPTGGSPSPLH,0
16,[…] (CDR3 as printed); P9I derived by comparing it with the table's wild-type CDR3 ASSPTGGSPSPLH,0
17,[…] (CDR3 as printed); H13F derived by comparing it with the table's wild-type CDR3 ASSPTGGSPSPLH,0
18,[…] (CDR3 as printed); S8T derived by comparing it with the table's wild-type CDR3 ASSPTGGSPSPLH,0
19,[…] (CDR3 as printed); G7L derived by comparing it with the table's wild-type CDR3 ASSPTGGSPSPLH,0
20,[…] (CDR3 as printed); P9T derived by comparing it with the table's wild-type CDR3 ASSPTGGSPSPLH,0
21,[…] (CDR3 as printed); P9L derived by comparing it with the table's wild-type CDR3 ASSPTGGSPSPLH,0

# Same assay, conditions: with HLA-A*02:01 with peptide … (NLV 2-1, the novel peptide), tetramers 1 µg/mL, 30 min on ice, SP, DP and SW gates expanded about 10 days between rounds ('two to three rounds of selection' in the Methods), gate SW: higher = more of the variant in the gate that binds the novel peptide and not the original one = switched binding. Fold enrichment of the CDR3 variant in one FACS gate of a two-tetramer stain, unresolved parent, parent is a CDR3 fragment, zero in all gates, scale: fold enrichment, numbering: sequential-on-construct, …
row,Variant,enrichment
1,[…] (CDR3 as printed); G7P derived by comparing it with the table's wild-type CDR3 ASSPTGGSPSPLH,0
